{"source": "patent US20230407373A1", "about": "(priority 2020, published 2023)", "molecules": {"B1": {"name": "G3BP2: host protein of the core SARS-CoV-2 RNA interactome (protein, UniProt Q9UN86 2-482, looked up)", "Ras GTPase-activating …": "VMEKPSPLLVGREFVRQYYTLLNKAPEYLHRFYGRNSSYVHGGVDASGKPQEAVYGQNDIHHKVLSLNFSECHTKIRHVDAHATLSDGVVVQVMGLLSNSGQPERKFMQTFVLAPEGSVPNKFYVHNDMFRYEDEVFGDSEPELDEESEDEVEEEQEERQPSPEPVQENANSGYYEAHPVTNGIEEPLEESSHEPEPEPESETKTEELKPQVEEKNLEELEEKSTTPPPAEPVSLPQEPPKAFSWASVTSKNLPPSGTVSSSGIPPHVKAPVSQPRVEAKPEVQSQPPRVREQRPRERPGFPPRGPRPGRGDMEQNDSDNRRIIRYPDSHQLFVGNLPHDIDENELKEFFMSFGNVVELRINTKGVGGKLPNFGFVVFDDSEPVQRILIAKPIMFRGEVRLNVEEKKTRAARERETRGGGDDRRDIRRNDRGPGGPRGIVGGGMMRDRDGRGPPPRGGMAQKLGSGRGTGQMEGRFTGQRR"}}, "system": "HCoV-OC43 gRNA and sgRNA", "format": "binding"}
{"molecule": "B1", "values": [{"measurement": "background (unweighted spectral count, no-probe control)", "value": 1}, {"measurement": "target (unweighted spectral count)", "value": 4}, {"measurement": "target (unweighted spectral count, OC43 Probe II capture)", "value": 4}, {"measurement": "target (unweighted spectral count, OC43 Probe II)", "value": 9}]}
